Molecular target: SM5−1抗原(BIAcore測定に用いた形は記載なし)
Assay: BIAcore (Pharmacia), kinetic analysis after Karlsson et al.

Kd: 9.31 nM
B1: 抗ヒトSM5−1ヒト化抗体(ReSM5−1) (antibody, V domains shown)
VH: QVQLVQSGGGVVQPGRSLRLSCKASGYTFTSYVMHWVRQAPGKGLEWIGYIVPYNDGTKYNEKFKGRFTISSDKSKSTAFLQMDSLRPEDTAVYYCARGSRYDWYLDYWGQGTPVTVSS
VL: NIMMTQSPSSLSASVGDRVTITCKSSQSVLYSSNQKNYLAWYQQTPGKAPKLLIYWASTRESGVPSRFSGSGSGTDYTFTISSLQPEDIATYYCHQYFSSYTFGQGTKLQITR

Reference: patent publication JP2007535905A
